For this series, the system named is Escherichia coli TOP10. Kind of series: shrunken log2 fold change of peptide-encoding DNA abundance (4.5 h post-induction vs induction); higher = less antimicrobial activity (less host growth inhibition). The settings on record: time post-induction: 4.5 h; library: site-saturation at positions 5, 18, 19, 20.
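Also: peptides expressed intracellularly from a pBAD plasmid library in pooled LB shake-flask culture, induced with 0.3% L-arabinose, DNA abundance read by NGS, three biological replicates, DESeq2 with apeglm shrinkage.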

RRIRWRPPRLPRPRPRPRTVPRP: the “shrunken log2 fold change” value came to 0.0512.

As for RRIRPRPPRLPRPRPRPQMTPRP, the “shrunken log2 fold change” value was found to be 2.25.

On to RRIRWRPPRLPRPRPRPRCKPRP, for which the “shrunken log2 fold change” value was determined as 0.33.

Regarding RRIRLRPPRLPRPRPRPIAEPRP, the “shrunken log2 fold change” value is 0.591.

As to RRIRGRPPRLPRPRPRPVQTPRP, the “shrunken log2 fold change” value amounted to 0.626.

RRIRRRPPRLPRPRPRPPIFPRP: the “shrunken log2 fold change” value stood at 0.16.

For RRIRDRPPRLPRPRPRPNFCPRP, the “shrunken log2 fold change” value was -0.00997.

For RRIRLRPPRLPRPRPRPDQDPRP, the “shrunken log2 fold change” value was -0.218.

RRIRQRPPRLPRPRPRPPFRPRP: the “shrunken log2 fold change” value was 0.14.

RRIRTRPPRLPRPRPRPGIGPRP: the “shrunken log2 fold change” value was 0.17.

Consider RRIRVRPPRLPRPRPRPTAGPRP, for which the “shrunken log2 fold change” value was -0.0283.

In the case of RRIRNRPPRLPRPRPRPGYVPRP, the “shrunken log2 fold change” value is -0.077.

In the case of RRIRDRPPRLPRPRPRPVKIPRP, the “shrunken log2 fold change” value was -0.101.

Turning to RRIRTRPPRLPRPRPRPKDCPRP, the “shrunken log2 fold change” value was found to be 0.0164.

As to RRIRIRPPRLPRPRPRPGGFPRP, the “shrunken log2 fold change” value was found to be 0.179.

Consider RRIRERPPRLPRPRPRPLLIPRP, for which the “shrunken log2 fold change” value was -0.437.

With RRIRGRPPRLPRPRPRPPETPRP, the “shrunken log2 fold change” value is 1.24.

As to RRIRQRPPRLPRPRPRPIVGPRP, the “shrunken log2 fold change” value amounted to 0.0288.

For RRIRGRPPRLPRPRPRPHGYPRP, the “shrunken log2 fold change” value is -0.0362.

For the sequence RRIRERPPRLPRPRPRPAECPRP, the “shrunken log2 fold change” value was -0.0953.

As for RRIRFRPPRLPRPRPRPGTNPRP, the “shrunken log2 fold change” value was -0.254.

Regarding RRIRCRPPRLPRPRPRPYPTPRP, the “shrunken log2 fold change” value was -0.517.

With RRIRVRPPRLPRPRPRPTSWPRP, the “shrunken log2 fold change” value came out at 0.383.

As to RRIRGRPPRLPRPRPRPFHEPRP, the “shrunken log2 fold change” value was -0.537.

As to RRIRLRPPRLPRPRPRPSERPRP, the “shrunken log2 fold change” value was -0.0849.

With RRIRNRPPRLPRPRPRPYNNPRP, the “shrunken log2 fold change” value is -1.19.

For the sequence RRIRTRPPRLPRPRPRPQLRPRP, the “shrunken log2 fold change” value was -0.12.

Take RRIRTRPPRLPRPRPRPQGVPRP: the “shrunken log2 fold change” value was -0.0062.

Turning to RRIRNRPPRLPRPRPRPQLYPRP, the “shrunken log2 fold change” value was -0.206.

Turning to RRIRKRPPRLPRPRPRPWAVPRP, the “shrunken log2 fold change” value turned out to be 0.192.

With RRIRKRPPRLPRPRPRPGWIPRP, the “shrunken log2 fold change” value is 1.07.

As for RRIRTRPPRLPRPRPRPCETPRP, the “shrunken log2 fold change” value is 0.0184.

Take RRIRARPPRLPRPRPRPKRAPRP: the “shrunken log2 fold change” value amounted to 0.65.

Consider RRIRFRPPRLPRPRPRPMKRPRP, for which the “shrunken log2 fold change” value was found to be 0.347.

As to RRIRYRPPRLPRPRPRPNSPPRP, the “shrunken log2 fold change” value was -0.21.

Consider RRIRYRPPRLPRPRPRPCAGPRP, for which the “shrunken log2 fold change” value was -0.0602.

On to RRIRYRPPRLPRPRPRPTHFPRP, for which the “shrunken log2 fold change” value is 0.262.

With RRIRNRPPRLPRPRPRPQHDPRP, the “shrunken log2 fold change” value was -0.25.

In the case of RRIRVRPPRLPRPRPRPDFWPRP, the “shrunken log2 fold change” value was determined as 0.239.

RRIRWRPPRLPRPRPRPYSNPRP: the “shrunken log2 fold change” value is -0.2.

Regarding RRIRLRPPRLPRPRPRPQWFPRP, the “shrunken log2 fold change” value was -0.0962.

Regarding RRIRGRPPRLPRPRPRPIPMPRP, the “shrunken log2 fold change” value was 0.372.

As for RRIRARPPRLPRPRPRPLSSPRP, the “shrunken log2 fold change” value came out at 0.2.

As for RRIRKRPPRLPRPRPRPNVNPRP, the “shrunken log2 fold change” value was -0.0135.

As to RRIRSRPPRLPRPRPRPQPHPRP, the “shrunken log2 fold change” value came out at 0.17.

RRIRRRPPRLPRPRPRPYAPPRP: the “shrunken log2 fold change” value is -0.0565.

With RRIRDRPPRLPRPRPRPPKEPRP, the “shrunken log2 fold change” value was -0.2.

RRIRIRPPRLPRPRPRPTNRPRP: the “shrunken log2 fold change” value is -0.326.

For RRIRKRPPRLPRPRPRPMKHPRP, the “shrunken log2 fold change” value is -0.156.

In the case of RRIRVRPPRLPRPRPRPVREPRP, the “shrunken log2 fold change” value is 0.3.

Turning to RRIRLRPPRLPRPRPRPGIKPRP, the “shrunken log2 fold change” value was -0.874.

Consider RRIRPRPPRLPRPRPRPIVMPRP, for which the “shrunken log2 fold change” value was -0.445.

Consider RRIRHRPPRLPRPRPRPLNEPRP, for which the “shrunken log2 fold change” value is -0.124.

For the sequence RRIRMRPPRLPRPRPRPYLLPRP, the “shrunken log2 fold change” value was -0.204.

RRIRCRPPRLPRPRPRPSRYPRP: the “shrunken log2 fold change” value was -0.285.

As for RRIRQRPPRLPRPRPRPEPTPRP, the “shrunken log2 fold change” value was found to be 0.877.

Take RRIRIRPPRLPRPRPRPFVKPRP: the “shrunken log2 fold change” value was -0.691.

As to RRIRQRPPRLPRPRPRPHYYPRP, the “shrunken log2 fold change” value is -0.0332.

As to RRIRQRPPRLPRPRPRPNHHPRP, the “shrunken log2 fold change” value is -0.864.

Consider RRIRGRPPRLPRPRPRPALLPRP, for which the “shrunken log2 fold change” value came out at 1.14.

For RRIRLRPPRLPRPRPRPGYFPRP, the “shrunken log2 fold change” value is -0.347.

As for RRIRHRPPRLPRPRPRPAQRPRP, the “shrunken log2 fold change” value stood at 0.359.

Turning to RRIRMRPPRLPRPRPRPKTVPRP, the “shrunken log2 fold change” value was determined as 0.847.

Consider RRIRGRPPRLPRPRPRPRQNPRP, for which the “shrunken log2 fold change” value stood at 0.768.

As to RRIRHRPPRLPRPRPRPTLWPRP, the “shrunken log2 fold change” value was 0.246.

Regarding RRIRTRPPRLPRPRPRPFAPPRP, the “shrunken log2 fold change” value is 0.163.

RRIRYRPPRLPRPRPRPLDWPRP: the “shrunken log2 fold change” value is 0.171.

RRIRYRPPRLPRPRPRPKRQPRP: the “shrunken log2 fold change” value came out at 0.00924.

For the sequence RRIRIRPPRLPRPRPRPFCLPRP, the “shrunken log2 fold change” value was -0.739.

As for RRIRERPPRLPRPRPRPCGHPRP, the “shrunken log2 fold change” value amounted to 0.0222.

Turning to RRIRERPPRLPRPRPRPDAFPRP, the “shrunken log2 fold change” value was -0.038.

For the sequence RRIRPRPPRLPRPRPRPISVPRP, the “shrunken log2 fold change” value was -0.171.

Take RRIRERPPRLPRPRPRPYWSPRP: the “shrunken log2 fold change” value was -0.568.

As for RRIRMRPPRLPRPRPRPLPKPRP, the “shrunken log2 fold change” value amounted to 1.11.

Turning to RRIRLRPPRLPRPRPRPIPKPRP, the “shrunken log2 fold change” value is -0.0415.

Take RRIRKRPPRLPRPRPRPPWCPRP: the “shrunken log2 fold change” value was 0.401.

In the case of RRIRYRPPRLPRPRPRPAVTPRP, the “shrunken log2 fold change” value was -3.6.

On to RRIRSRPPRLPRPRPRPSHNPRP, for which the “shrunken log2 fold change” value is -0.784.

As to RRIRMRPPRLPRPRPRPSEVPRP, the “shrunken log2 fold change” value came out at 0.159.

For the sequence RRIRHRPPRLPRPRPRPMECPRP, the “shrunken log2 fold change” value was -0.427.

As for RRIRARPPRLPRPRPRPHCRPRP, the “shrunken log2 fold change” value was -0.0687.

In the case of RRIRVRPPRLPRPRPRPPPTPRP, the “shrunken log2 fold change” value stood at 0.933.

For RRIRRRPPRLPRPRPRPWTGPRP, the “shrunken log2 fold change” value was -0.444.

Turning to RRIRERPPRLPRPRPRPGAYPRP, the “shrunken log2 fold change” value was -0.243.

As for RRIRHRPPRLPRPRPRPVVGPRP, the “shrunken log2 fold change” value is 0.0224.

For RRIRWRPPRLPRPRPRPTSKPRP, the “shrunken log2 fold change” value is -0.0975.

Consider RRIRFRPPRLPRPRPRPISYPRP, for which the “shrunken log2 fold change” value is -0.778.

For the sequence RRIRGRPPRLPRPRPRPPNSPRP, the “shrunken log2 fold change” value stood at 0.301.

For the sequence RRIRQRPPRLPRPRPRPHFDPRP, the “shrunken log2 fold change” value was -0.000826.

As to RRIRIRPPRLPRPRPRPAGAPRP, the “shrunken log2 fold change” value was determined as 0.359.

Take RRIRDRPPRLPRPRPRPRASPRP: the “shrunken log2 fold change” value stood at 0.214.

For the sequence RRIRCRPPRLPRPRPRPFCLPRP, the “shrunken log2 fold change” value is -0.327.

As for RRIRPRPPRLPRPRPRPPKSPRP, the “shrunken log2 fold change” value is 0.177.

RRIRARPPRLPRPRPRPDHQPRP: the “shrunken log2 fold change” value was -0.0683.

In the case of RRIRERPPRLPRPRPRPKKVPRP, the “shrunken log2 fold change” value is -0.178.

With RRIRMRPPRLPRPRPRPIRHPRP, the “shrunken log2 fold change” value is 0.017.

Consider RRIRCRPPRLPRPRPRPNAQPRP, for which the “shrunken log2 fold change” value worked out at 0.164.

In the case of RRIRTRPPRLPRPRPRPDYVPRP, the “shrunken log2 fold change” value was -0.0882.

As to RRIRMRPPRLPRPRPRPKGVPRP, the “shrunken log2 fold change” value came out at 1.1.

In the case of RRIRCRPPRLPRPRPRPWSIPRP, the “shrunken log2 fold change” value was 0.0457.

RRIRFRPPRLPRPRPRPATPPRP: the “shrunken log2 fold change” value was 0.315.

For RRIRDRPPRLPRPRPRPAVKPRP, the “shrunken log2 fold change” value turned out to be 0.368.

As to RRIRTRPPRLPRPRPRPAFRPRP, the “shrunken log2 fold change” value is -0.125.

Turning to RRIRVRPPRLPRPRPRPSAHPRP, the “shrunken log2 fold change” value is -0.0182.

For the sequence RRIRMRPPRLPRPRPRPREWPRP, the “shrunken log2 fold change” value is -0.0018.

For the sequence RRIRGRPPRLPRPRPRPWGEPRP, the “shrunken log2 fold change” value was 0.285.

As to RRIRSRPPRLPRPRPRPAHGPRP, the “shrunken log2 fold change” value turned out to be 0.153.

On to RRIRHRPPRLPRPRPRPTWGPRP, for which the “shrunken log2 fold change” value was determined as 0.0618.

Take RRIRCRPPRLPRPRPRPPWRPRP: the “shrunken log2 fold change” value came out at 0.751.

For RRIRERPPRLPRPRPRPLYWPRP, the “shrunken log2 fold change” value is -0.383.

In the case of RRIRFRPPRLPRPRPRPKPLPRP, the “shrunken log2 fold change” value is 0.433.

Turning to RRIRLRPPRLPRPRPRPLPLPRP, the “shrunken log2 fold change” value amounted to 0.338.

Consider RRIRHRPPRLPRPRPRPFCLPRP, for which the “shrunken log2 fold change” value is -0.262.

RRIRNRPPRLPRPRPRPMPTPRP: the “shrunken log2 fold change” value amounted to 0.257.

RRIRCRPPRLPRPRPRPMFSPRP: the “shrunken log2 fold change” value is -0.48.

For the sequence RRIRGRPPRLPRPRPRPKPYPRP, the “shrunken log2 fold change” value is 0.332.

With RRIRMRPPRLPRPRPRPACHPRP, the “shrunken log2 fold change” value amounted to 0.151.

In the case of RRIRHRPPRLPRPRPRPVKQPRP, the “shrunken log2 fold change” value was -0.0982.

As to RRIRIRPPRLPRPRPRPKQMPRP, the “shrunken log2 fold change” value is -0.166.

In the case of RRIRIRPPRLPRPRPRPDCCPRP, the “shrunken log2 fold change” value was 0.000204.

Take RRIRSRPPRLPRPRPRPGEHPRP: the “shrunken log2 fold change” value came out at 0.0053.

On to RRIRGRPPRLPRPRPRPLDWPRP, for which the “shrunken log2 fold change” value is 1.07.

RRIRKRPPRLPRPRPRPQGCPRP: the “shrunken log2 fold change” value was found to be 0.421.

Turning to RRIRHRPPRLPRPRPRPKVKPRP, the “shrunken log2 fold change” value is 0.235.

As to RRIRYRPPRLPRPRPRPRFRPRP, the “shrunken log2 fold change” value was -0.213.

The record behind these values is the supplement of paper PMC9112550, “Optimization of the antimicrobial peptide Bac7 by deep mutational scanning” (BMC Biology, 2022).
